This assay addresses T1, NF-κB p65 (mouse, intestinal epithelial cells of wild-type C57BL/6J and Min mice) (mouse, UniProt Q04207 1-549).
T1 construct: Endogenous mouse protein
Description: anti-p65 immunoprecipitation of nuclear extract from mouse intestinal epithelial cells, immunoblot. (Immunoblotting shows a protein as a band on a membrane.)

T1 sequence (Q04207 whole entry): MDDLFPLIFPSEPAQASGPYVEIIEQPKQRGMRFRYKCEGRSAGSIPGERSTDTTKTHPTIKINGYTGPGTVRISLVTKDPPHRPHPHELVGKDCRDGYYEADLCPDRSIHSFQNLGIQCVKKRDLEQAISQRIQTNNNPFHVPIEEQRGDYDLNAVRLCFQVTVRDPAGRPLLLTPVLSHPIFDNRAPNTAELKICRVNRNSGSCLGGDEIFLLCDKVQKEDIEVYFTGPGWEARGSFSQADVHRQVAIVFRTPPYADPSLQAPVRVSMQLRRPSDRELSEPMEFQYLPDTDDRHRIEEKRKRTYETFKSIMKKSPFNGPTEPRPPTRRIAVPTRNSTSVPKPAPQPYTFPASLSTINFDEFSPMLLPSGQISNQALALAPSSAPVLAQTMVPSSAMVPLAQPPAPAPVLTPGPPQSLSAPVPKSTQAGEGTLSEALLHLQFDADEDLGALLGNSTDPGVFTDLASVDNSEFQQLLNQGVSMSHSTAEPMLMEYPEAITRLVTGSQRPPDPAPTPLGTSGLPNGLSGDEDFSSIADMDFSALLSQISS

B1: annexin 1 (mouse, intestinal epithelial cells of wild-type C57BL/6J and Min mice) (other, UniProt P10107 2-346, looked up)
chain: AMVSEFLKQARFLENQEQEYVQAVKSYKGGPGSAVSPYPSFNVSSDVAALHKAIMVKGVDEATIIDILTKRTNAQRQQIKAAYLQENGKPLDEVLRKALTGHLEEVVLAMLKTPAQFDADELRGAMKGLGTDEDTLIEILTTRSNEQIREINRVYREELKRDLAKDITSDTSGDFRKALLALAKGDRCQDLSVNQDLADTDARALYEAGERRKGTDVNVFTTILTSRSFPHLRRVFQNYGKYSQHDMNKALDLELKGDIEKCLTTIVKCATSTPAFFAEKLYEAMKGAGTRHKALIRIMVSRSEIDMNEIKVFYQKKYGISLCQAILDETKGDYEKILVALCGGN
notes: Endogenous mouse protein; also called induced annexin 1
On to B1, for which the binding result was “binds”.
